B1: Mitogen-activated protein kinase kinase kinase 21 (Homo sapiens), Q5TCX8 (parent)
chain: MALRGAAGATDTPVSSAGGAPGGSASSSSTSSGGSASAGAGLWAALYDYEARGEDELSLRRGQLVEVLSQDAAVSGDEGWWAGQVQRRLGIFPANYVAPCRPAASPAPPPSRPSSPVHVAFERLELKELIGAGGFGQVYRATWQGQEVAVKAARQDPEQDAAAAAESVRREARLFAMLRHPNIIELRGVCLQQPHLCLVLEFARGGALNRALAAANAAPDPRAPGPRRARRIPPHVLVNWAVQIARGMLYLHEEAFVPILHRDLKSSNILLLEKIEHDDICNKTLKITDFGLAREWHRTTKMSTAGTYAWMAPEVIKSSLFSKGSDIWSYGVLLWELLTGEVPYRGIDGLAVAYGVAVNKLTLPIPSTCPEPFAKLMKECWQQDPHIRPSFALILEQLTAIEGAVMTEMPQESFHSMQDDWKLEIQQMFDELRTKEKELRSREEELTRAALQQKSQEELLKRREQQLAEREIDVLERELNILIFQLNQEKPKVKKRKGKFKRSRLKLKDGHRISLPSDFQHKITVQASPNLDKRRSLNSSSSSPPSSPTMMPRLRAIQLTSDESNKTWGRNTVFRQEEFEDVKRNFKKKGCTWGPNSIQMKDRTDCKERIRPLSDGNSPWSTILIKNQKTMPLASLFVDQPGSCEEPKLSPDGLEHRKPKQIKLPSQAYIDLPLGKDAQRENPAEAESWEEAASANAATVSIEMTPTNSLSRSPQRKKTESALYGCTVLLASVALGLDLRELHKAQAAEEPLPKEEKKKREGIFQRASKSRRSASPPTSLPSTCGEASSPPSLPLSSALGILSTPSFSTKCLLQMDSEDPLVDSAPVTCDSEMLTPDFCPTAPGSGREPALMPRLDTDCSVSRNLPSSFLQQTCGNVPYCASSKHRPSHHRRTMSDGNPTPTGATIISATGASALPLCPSPAPHSHLPREVSPKKHSTVHIVPQRRPASLRSRSDLPQAYPQTAVSQLAQTACVVGRPGPHPTQFLAAKERTKSHVPSLLDADVEGQSRDYTVPLCRMRSKTSRPSIYELEKEFLS
partner: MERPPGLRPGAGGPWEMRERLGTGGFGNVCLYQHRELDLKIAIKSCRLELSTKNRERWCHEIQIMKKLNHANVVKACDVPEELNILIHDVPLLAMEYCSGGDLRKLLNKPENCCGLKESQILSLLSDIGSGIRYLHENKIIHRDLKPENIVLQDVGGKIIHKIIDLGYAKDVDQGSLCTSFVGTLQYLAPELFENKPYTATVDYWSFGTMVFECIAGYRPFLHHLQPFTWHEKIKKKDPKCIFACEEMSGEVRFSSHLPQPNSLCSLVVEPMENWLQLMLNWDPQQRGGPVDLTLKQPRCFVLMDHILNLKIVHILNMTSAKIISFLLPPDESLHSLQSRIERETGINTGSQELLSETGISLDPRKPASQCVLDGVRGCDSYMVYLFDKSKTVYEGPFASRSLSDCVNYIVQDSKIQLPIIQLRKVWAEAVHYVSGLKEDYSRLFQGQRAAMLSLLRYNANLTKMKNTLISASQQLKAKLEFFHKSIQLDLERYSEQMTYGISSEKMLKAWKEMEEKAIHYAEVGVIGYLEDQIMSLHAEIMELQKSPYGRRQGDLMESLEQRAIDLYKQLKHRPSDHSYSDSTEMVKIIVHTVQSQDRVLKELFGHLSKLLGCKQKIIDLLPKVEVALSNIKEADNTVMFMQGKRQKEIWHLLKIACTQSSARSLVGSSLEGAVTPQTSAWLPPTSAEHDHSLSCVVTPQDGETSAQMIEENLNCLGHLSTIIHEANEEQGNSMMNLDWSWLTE

Variants of: B1
Details: with ikka_human CHUK

Row | Variant | effect of a mutation on the interaction
1 | K151A | decreasing interaction strength
